The series has as its target T1, MYB46-GFP fusion.
T1 chain: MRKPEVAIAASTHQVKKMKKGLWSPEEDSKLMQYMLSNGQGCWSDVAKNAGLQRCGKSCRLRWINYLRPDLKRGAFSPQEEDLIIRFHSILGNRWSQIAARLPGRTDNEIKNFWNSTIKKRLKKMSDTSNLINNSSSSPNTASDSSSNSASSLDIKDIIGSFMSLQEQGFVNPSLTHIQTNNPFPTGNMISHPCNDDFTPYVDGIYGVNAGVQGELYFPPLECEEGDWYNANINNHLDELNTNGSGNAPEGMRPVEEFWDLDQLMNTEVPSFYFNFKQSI

B1: CAMPK6-HA (hemagglutinin conjugated CAMPK6) (protein)
chain: MDGGSGQPAADTEMTEAPGGFPAAAPSPQMPGIENIPATLSHGGRFIQYNIFGNIFEVTAKYKPPIMPIGKGAYGIVCSAMNSETNESVAIKKIANAFDNKIDAKRTLREIKLLRHMDHENIVAIRDIIPPPLRNAFNDVYIAYELMDTDLHQIIRSNQALSEEHCQYFLYQILRGLKYIHSANVLHRDLKPSNLLLNANCDLKICDFGLARVTSESGFMTAYVVTRWYRAPELLLNSSDYTAAIDVWSVGCIFMELMDRKPLFPGRDHVHQLRLLMELIGTPSEEELEFLNENAKRYIRQLPPYPRQSITDKFPTVHPLAIDLIEKMLTFDPRRRITVLDALAHPYLNSLHDISDEPECTIPFNFDFENHALSEEQMKELIYREALAFNPEYQQ
In the case of B1, the “immunocomplex kinase assay (phosphorylation of MYB46)” value is on record as “CAMPK6 directly phosphorylates MYB46”.

These data come from patent publication US20220340924.
